Assay results: paper PMC6504076, “An in vivo half-life extended prolactin receptor antagonist can prevent STAT5 phosphorylation” (PLoS ONE, 2019)

Experiments:
[1] = target: prolactin receptor (PrlR), extracellular domain (UniProt P16471); assay: SPR; Biacore 3000; extracellular domain of PrlR immobilized; ABD-PrlRA dilution series with HSA added to 400 nM, incubated 4 h at 4°C; PBS with 0.05% Tween-20 and HSA as running buffer; 25°C, 40 μl/min; 1:1 Langmuir model (called an approximation)
[2] = target: prolactin receptor (PrlR), extracellular domain (UniProt P16471); assay: as above; remark: listed apart in the source
[3] = target: mouse serum albumin (mouse) (UniProt P07724); assay: SPR; Biacore 3000; mouse serum albumin immobilized on CM5 chip (approx. 800 RU); dilution series of ABD-PrlRA injected; 25°C, 40 μl/min; 1:1 Langmuir model
Sequence of mouse serum albumin (mouse) (P07724 25-608): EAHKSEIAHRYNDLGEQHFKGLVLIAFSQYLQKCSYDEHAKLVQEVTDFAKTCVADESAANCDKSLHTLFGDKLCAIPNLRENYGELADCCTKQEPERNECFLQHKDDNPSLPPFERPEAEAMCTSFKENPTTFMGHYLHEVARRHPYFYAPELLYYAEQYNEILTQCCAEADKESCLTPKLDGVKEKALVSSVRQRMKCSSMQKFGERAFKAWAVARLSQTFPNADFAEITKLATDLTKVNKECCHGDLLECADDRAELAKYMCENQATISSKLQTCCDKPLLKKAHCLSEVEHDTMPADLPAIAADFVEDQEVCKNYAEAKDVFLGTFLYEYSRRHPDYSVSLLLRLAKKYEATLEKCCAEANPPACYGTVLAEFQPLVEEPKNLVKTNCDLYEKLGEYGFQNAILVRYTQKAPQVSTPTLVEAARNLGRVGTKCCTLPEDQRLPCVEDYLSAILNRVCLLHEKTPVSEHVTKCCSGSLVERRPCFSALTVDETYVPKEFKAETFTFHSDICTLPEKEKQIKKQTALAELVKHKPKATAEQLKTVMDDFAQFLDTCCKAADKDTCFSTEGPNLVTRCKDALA

[4] = target: prolactin receptor (PrlR), extracellular domain (UniProt P16471); assay: SPR; Biacore 3000; PrlR immobilized on CM5 chip (approx. 300 RU); dilution series of analyte injected; 25°C, 40 μl/min; PBS with 0.05% Tween-20; 1:1 Langmuir model
[5] = target: T1, prolactin receptor (PrlR), extracellular domain (UniProt P16471 25-234); assay: as above; settings: both partners purified
T1 construct: prolactin receptor, extracellular domain, from Sino Biological; No catalogue number printed; source: bought: Sino Biological
T1 sequence (looked up): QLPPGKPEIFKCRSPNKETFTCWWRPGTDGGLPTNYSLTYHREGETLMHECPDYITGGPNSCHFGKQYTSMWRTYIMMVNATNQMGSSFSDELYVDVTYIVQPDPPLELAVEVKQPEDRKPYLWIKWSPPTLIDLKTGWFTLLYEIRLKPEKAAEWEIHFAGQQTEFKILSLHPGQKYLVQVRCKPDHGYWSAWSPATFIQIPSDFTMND

[6] = target: T1, prolactin receptor (PrlR), …; assay: as above; settings: both partners purified; remark: listed apart in the source

“complex of HSA and ABD-PrlRA (from UniProt P02768 25-609; P01236 29-227)” was tested, and the Kd [1] was 21 nM, the koff [1] was 0.00078 s⁻¹ and the kon [1] was 39000 M⁻¹ s⁻¹. The Kd [2] was 23 nM.

Molecule “ABD-PrlRA (fusion of an N-terminal albumin binding domain ABD035 and the prolactin receptor antagonist PrlRA) (from UniProt P01236 29-227)” has a Kd [3] of 0.38 nM, a koff [3] of 0.0012 s⁻¹ and a kon [3] of 3.1e+06 M⁻¹ s⁻¹. The Kd [4] was 2.3 nM, the koff [4] was 0.00074 s⁻¹ and the kon [4] was 330000 M⁻¹ s⁻¹.

B1: prolactin receptor antagonist PrlRA (ligand, human)
chain: MGSSRSQVTLRDLFDRAVVLSHYIHNLASEMFSEFDKRYTHGRGFITKAINSCHTSSLATPEDKEQALQMNQKDFLSLIVSILRSWNEPLYHLVTEVRGMQEAPEAILSKAVEIEEQTKRLLERMELIVSQVHPETKENEIYPVWSGLPSLQMADEESRLSAYYNLLHCLRRDSHKIDNYLKLLRCRIIHNNNC
In the case of B1, the Kd [5] is reported as 3.4 ± 0.5 nM, the koff [5] is reported as 0.00088 s⁻¹ and the kon [5] is reported as 260000 M⁻¹ s⁻¹.

B2: prolactin (Prl), produced in house (ligand, human)
chain: MGSSLPICPGGAARCQVTLRDLFDRAVVLSHYIHNLSSEMFSEFDKRYTHGRGFITKAINSCHTSSLATPEDKEQAQQMNQKDFLSLIVSILRSWNEPLYHLVTEVRGMQEAPEAILSKAVEIEEQTKRLLEGMELIVSQVHPETKENEIYPVWSGLPSLQMADEESRLSAYYNLLHCLRRDSHKIDNYLKLLKCRIIHNNNC
notes: prolactin, human; the Prl gene itself is not separately called human; also called in house produced Prl
In the case of B2, the Kd [5] is reported as 8.4 ± 0.2 nM, the koff [5] is reported as 0.0012 s⁻¹ and the kon [5] is reported as 140000 M⁻¹ s⁻¹.

B3: Prolactin (Prl*), commercially obtained (ligand, UniProt P01236 29-227, looked up)
chain: LPICPGGAARCQVTLRDLFDRAVVLSHYIHNLSSEMFSEFDKRYTHGRGFITKAINSCHTSSLATPEDKEQAQQMNQKDFLSLIVSILRSWNEPLYHLVTEVRGMQEAPEAILSKAVEIEEQTKRLLEGMELIVSQVHPETKENEIYPVWSGLPSLQMADEESRLSAYYNLLHCLRRDSHKIDNYLKLLKCRIIHNNNC
notes: prolactin from Sino Biological; No catalogue number printed; source: bought: Sino Biological
With B3 the Kd [6] was 23 ± 4 nM.
